Test results taken from IntAct's records for PubMed 24907116.

B1: Mineralocorticoid receptor (Homo sapiens), P08235 (parent)
chain: METKGYHSLPEGLDMERRWGQVSQAVERSSLGPTERTDENNYMEIVNVSCVSGAIPNNSTQGSSKEKQELLPCLQQDNNRPGILTSDIKTELESKELSATVAESMGLYMDSVRDADYSYEQQNQQGSMSPAKIYQNVEQLVKFYKGNGHRPSTLSCVNTPLRSFMSDSGSSVNGGVMRAVVKSPIMCHEKSPSVCSPLNMTSSVCSPAGINSVSSTTASFGSFPVHSPITQGTPLTCSPNVENRGSRSHSPAHASNVGSPLSSPLSSMKSSISSPPSHCSVKSPVSSPNNVTLRSSVSSPANINNSRCSVSSPSNTNNRSTLSSPAASTVGSICSPVNNAFSYTASGTSAGSSTLRDVVPSPDTQEKGAQEVPFPKTEEVESAISNGVTGQLNIVQYIKPEPDGAFSSSCLGGNSKINSDSSFSVPIKQESTKHSCSGTSFKGNPTVNPFPFMDGSYFSFMDDKDYYSLSGILGPPVPGFDGNCEGSGFPVGIKQEPDDGSYYPEASIPSSAIVGVNSGGQSFHYRIGAQGTISLSRSARDQSFQHLSSFPPVNTLVESWKSHGDLSSRRSDGYPVLEYIPENVSSSTLRSVSTGSSRPSKICLVCGDEASGCHYGVVTCGSCKVFFKRAVEGQHNYLCAGRNDCIIDKIRRKNCPACRLQKCLQAGMNLGARKSKKLGKLKGIHEEQPQQQQPPPPPPPPQSPEEGTTYIAPAKEPSVNTALVPQLSTISRALTPSPVMVLENIEPEIVYAGYDSSKPDTAENLLSTLNRLAGKQMIQVVKWAKVLPGFKNLPLEDQITLIQYSWMCLSSFALSWRSYKHTNSQFLYFAPDLVFNEEKMHQSAMYELCQGMHQISLQFVRLQLTFEEYTIMKVLLLLSTIPKDGLKSQAAFEEMRTNYIKELRKMVTKCPNNSGQSWQRFYQLTKLLDSMHDLVSDLLEFCFYTFRESHALKVEFPAMLVEIISDQLPKVESGNAKPLYFHRK
partner: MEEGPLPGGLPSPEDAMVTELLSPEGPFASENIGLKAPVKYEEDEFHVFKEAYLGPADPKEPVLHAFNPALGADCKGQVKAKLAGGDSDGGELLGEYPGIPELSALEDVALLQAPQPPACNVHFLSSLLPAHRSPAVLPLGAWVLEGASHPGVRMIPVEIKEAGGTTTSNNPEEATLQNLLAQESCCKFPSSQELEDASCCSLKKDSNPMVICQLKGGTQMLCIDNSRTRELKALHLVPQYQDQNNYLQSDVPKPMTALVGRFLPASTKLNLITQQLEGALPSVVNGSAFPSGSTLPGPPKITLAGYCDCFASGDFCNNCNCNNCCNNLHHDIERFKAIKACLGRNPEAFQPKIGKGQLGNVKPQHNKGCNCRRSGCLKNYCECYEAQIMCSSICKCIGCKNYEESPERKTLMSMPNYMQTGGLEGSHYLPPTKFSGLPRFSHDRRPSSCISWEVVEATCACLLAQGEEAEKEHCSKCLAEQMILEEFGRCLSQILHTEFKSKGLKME
B2: Mineralocorticoid receptor (Homo sapiens), P08235 (parent)
chain: B1 chain
partner: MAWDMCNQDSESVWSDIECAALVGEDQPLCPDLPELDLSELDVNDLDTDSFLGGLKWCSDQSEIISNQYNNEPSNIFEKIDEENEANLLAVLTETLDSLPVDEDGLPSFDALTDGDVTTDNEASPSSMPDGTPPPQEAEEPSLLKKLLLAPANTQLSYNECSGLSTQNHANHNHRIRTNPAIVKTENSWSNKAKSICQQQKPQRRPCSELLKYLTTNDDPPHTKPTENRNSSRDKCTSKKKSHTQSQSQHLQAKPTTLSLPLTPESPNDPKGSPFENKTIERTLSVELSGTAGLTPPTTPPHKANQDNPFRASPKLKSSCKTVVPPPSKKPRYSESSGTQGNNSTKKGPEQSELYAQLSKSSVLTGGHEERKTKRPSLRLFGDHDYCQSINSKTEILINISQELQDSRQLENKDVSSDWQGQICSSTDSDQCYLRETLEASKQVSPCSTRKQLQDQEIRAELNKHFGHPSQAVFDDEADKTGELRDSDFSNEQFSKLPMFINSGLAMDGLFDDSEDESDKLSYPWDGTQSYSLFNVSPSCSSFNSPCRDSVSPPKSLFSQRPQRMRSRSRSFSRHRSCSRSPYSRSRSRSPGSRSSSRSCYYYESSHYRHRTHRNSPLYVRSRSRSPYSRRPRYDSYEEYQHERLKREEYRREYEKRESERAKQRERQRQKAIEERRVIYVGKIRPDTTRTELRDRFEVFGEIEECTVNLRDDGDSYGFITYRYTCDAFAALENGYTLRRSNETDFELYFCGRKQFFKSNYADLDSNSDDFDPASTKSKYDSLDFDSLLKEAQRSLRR
B3: Tesmin (Homo sapiens), Q9Y4I5 (parent)
chain: B1 partner

Variants of: B1
Details: with mtl5_human TESMIN

| effect of a mutation on the interaction | Variant |
| --- | --- |
| decreasing interaction strength | E962A |

Variants of: B2
Details: with prgc1_human PPARGC1A

| effect of a mutation on the interaction | Variant |
| --- | --- |
| disrupting interaction strength | E962A |

Variants of: B2
Details: with prgc1_human PPARGC1A
Remark: another data set of the same source

| effect of a mutation on the interaction | Variant |
| --- | --- |
| decreasing interaction strength | E962A |

Variants of: B3
Details: with mcr_human NR3C2, P08235

| effect of a mutation on the interaction | Variant |
| --- | --- |
| with no effect | L180A;L181A |
| disrupting interaction strength | L128A;L129A;L180A;L181A |
| with no effect | L128A;L129A |
